Test results as given in patent US11028174 (LEPU BIOPHARMA, dated 2021).
Blank lines part the entries; values can stand above or below the molecule they belong to.

What was measured:
[1] = target: PD-L1 on PD-L1 target cells (Homo sapiens (Human)) (UniProt Q9NZQ7); test: cell-based or functional assay
[2] = target: recombinant human TGF-β (human) (UniProt P01137); test: cell-based or functional assay
rat PD-L1 protein = rat PD-L1 protein (rat, UniProt D4AE25 19-239); test: ELISA, coated rat PD-L1
Method: (§1) ELISA testing was carried out to evaluate the binding of chimeric antibodies to human PD-L1, mouse PD-L1, rat PD-L1, and cynomolgus PD-L1, respectively.
(§2) Briefly, microtiter plates were coated with human, mouse, rat and cynomolgus PD-L1 proteins at 0.5 µg/ml in PBS, 100 µl/well at 4° C. overnight, then blocked with 150 µl/well of 1% BSA. Three-fold dilutions of chimeric antibodies starting from 10 µg/ml were added to each well and incubated for 1 hour at 37° C. The plates were washed with PBS/Tween and then incubate with mouse-anti-human IgG Fab antibody conjugated with Horse Radish Peroxidase (HRP) for 30 mins at 37° C. After washing, the plates were developed with TMB substrate and analyzed by spectrophotometer at OD 450 nm.

mouse PD-L1 protein = mouse PD-L1 protein (mouse, UniProt Q9EP73 19-239, limits assumed); test: ELISA, coated mouse PD-L1
Method: as §1, §2

mouse PD-L1 protein, sequence (Q9EP73 19-239 limits assumed): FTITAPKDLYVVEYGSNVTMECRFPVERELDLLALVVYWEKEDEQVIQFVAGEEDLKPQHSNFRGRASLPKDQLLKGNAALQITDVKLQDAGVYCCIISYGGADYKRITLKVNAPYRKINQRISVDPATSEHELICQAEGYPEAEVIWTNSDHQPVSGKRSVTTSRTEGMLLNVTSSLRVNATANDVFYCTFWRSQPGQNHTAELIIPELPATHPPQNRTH
rat PD-L1 protein, sequence (D4AE25 entry or part of it limits assumed): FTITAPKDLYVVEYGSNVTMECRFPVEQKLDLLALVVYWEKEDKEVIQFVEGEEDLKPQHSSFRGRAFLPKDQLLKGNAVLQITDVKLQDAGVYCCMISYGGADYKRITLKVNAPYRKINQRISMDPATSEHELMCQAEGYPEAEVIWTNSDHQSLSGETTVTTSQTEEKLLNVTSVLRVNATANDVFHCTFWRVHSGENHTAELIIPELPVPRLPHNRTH
PD-L1 on PD-L1 target cells (Homo sapiens (Human)), sequence (Q9NZQ7 19-290 limits assumed): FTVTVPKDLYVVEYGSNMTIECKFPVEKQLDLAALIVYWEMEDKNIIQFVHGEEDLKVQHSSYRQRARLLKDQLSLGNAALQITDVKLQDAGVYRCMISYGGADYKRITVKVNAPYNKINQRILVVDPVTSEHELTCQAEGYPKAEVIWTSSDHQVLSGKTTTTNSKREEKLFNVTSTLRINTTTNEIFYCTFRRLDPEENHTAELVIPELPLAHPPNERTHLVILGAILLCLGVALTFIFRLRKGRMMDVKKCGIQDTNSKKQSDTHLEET
recombinant human TGF-β (human), sequence (P01137 279-390 limits assumed): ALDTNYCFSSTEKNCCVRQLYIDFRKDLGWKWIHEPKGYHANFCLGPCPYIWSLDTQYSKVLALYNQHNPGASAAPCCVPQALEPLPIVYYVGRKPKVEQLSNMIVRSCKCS

NFAT-RE-mediated luminescence, PD1 effector cells co-cultured with PD-L1 target cells [1]: 0.85 nM
TGF-β SMAD luciferase reporter assay in transfected 293 cells [2]: 0.0669 nM
Molecule: M7824 (bintrafusp alfa)

B1: 47C6A3 chimeric mAb (antibody, V domains shown)
VH: DVQLQESGPGLVKPSQSLSLTCTVTGYSITSDYAWNWIRQFPGNKLEWMGYIIYSGSTSYNPSLKSRISITRDTSKNQFFLQLNSVTTEDTATYYCARSTMIATNWFAYWGQGTLVTVSA
VL: DIVMTQSHKFMSTSVVDRVSITCKASQDVSLAVAWYQQKPGQSPKLLIYWASTRHTGVPDRFTGSGSGTDFALTISSVQAEDLALYYCQQHYITPWTFGGGTKLEIK
notes: also called 47C6A3-chimera
binding result (rat PD-L1 protein): no binding (tested: starting from 10 µg/ml)
binding result (mouse PD-L1 protein): no binding (tested: starting from 10 µg/ml)

B2: 89C10H8 chimeric mAb (antibody, V domains shown)
VH: EVQLVESGGGLVQPGRSLTLSCVASGFTFSNYWMTWIRQAPGKGLEWVASITNTGSSTFYPDSVKGRFTISRDNTRSTLFLQINSLRSEDTATYYCTRDTTIAPFDYWGQGVMVTVSS
VL: DIQMTQSPSFLSASVGDRVTITCKASQNLNEYLNWYQQKLGEAPKRLIYKTNTLQAGIPSRFSGSGSGIDYTLTISSLQPEDVATYFCSQYNSGNTFGAGTKLELK
notes: also called 89C10H8-chimera
binding result (rat PD-L1 protein): no binding (tested: starting from 10 µg/ml)
binding result (mouse PD-L1 protein): no binding (tested: starting from 10 µg/ml)

B3: 67F3G7 chimeric mAb (antibody, V domains shown)
VH: QVKLLQSGAALVKPGASVKMSCKASGYIFTDFWVSWVKQSHEKSLEWIGEIYPNSGVSRYNEKFKGRATMTVDKSTSTAYLELSRLTSEDSAIYYCTKYFGYTYWFGYWGQGTLVTVSS
VL: DTVLTQSPALAVSLGQRITISCRASKSVSTYMHWYQQRSGLQPKLLIYSASHLESGVPSRFSGSGSGTDFTLTIDPVEADDIANYYCQQSNELPVTFGSGTKLEIK
notes: also called 67F3G7-chimera
binding result (rat PD-L1 protein): no binding (tested: starting from 10 µg/ml)
binding result (mouse PD-L1 protein): no binding (tested: starting from 10 µg/ml)
